Among the data in patent US20240101683A1 (published 2024) are EC50 values, retold here.

By EC50 is commonly meant the concentration giving half of the maximal effect.

Experiment [1] concerns the target T1, rhFGFR2IIIb-Fc (recombinant human FGFR2IIIb-Fc) (human, UniProt P21802-3 22-378, limits assumed).
T1 construct: Coated on the ELISA plate at 2 ug/mL; not shown: Fc part
Kind of experiment: ELISA, coated rhFGFR2IIIb-Fc, anti-Fab HRP. (An ELISA detects its analyte on a solid surface through an enzyme-linked reagent.)

Experiment [2] concerns the target T2, Human FGFR2βIIIb (human, UniProt P21802-21 22-263, limits assumed).
T2 construct: Construct used in the ELISA (tag, Fc, limits) is not described
As to the kind of experiment: ELISA, coated antigen, anti-Fab HRP.

Experiment [3] concerns the target T3, Murine FGFR2IIIb (murine, UniProt P21803-2 22-263, limits assumed).
T3 construct: Construct used in the ELISA is not described
Kind of experiment: ELISA, coated antigen, anti-Fab HRP.

T3 sequence (P21803 other isoform, or with tags, fused parts or gaps limits assumed): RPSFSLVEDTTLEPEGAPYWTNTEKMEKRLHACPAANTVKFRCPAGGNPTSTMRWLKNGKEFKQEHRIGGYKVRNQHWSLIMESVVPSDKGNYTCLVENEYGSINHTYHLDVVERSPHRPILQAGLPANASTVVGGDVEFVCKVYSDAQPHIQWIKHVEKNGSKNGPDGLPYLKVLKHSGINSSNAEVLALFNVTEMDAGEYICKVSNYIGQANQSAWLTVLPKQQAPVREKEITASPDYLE
T1 sequence (P21802 other isoform, or with tags, fused parts or gaps limits assumed): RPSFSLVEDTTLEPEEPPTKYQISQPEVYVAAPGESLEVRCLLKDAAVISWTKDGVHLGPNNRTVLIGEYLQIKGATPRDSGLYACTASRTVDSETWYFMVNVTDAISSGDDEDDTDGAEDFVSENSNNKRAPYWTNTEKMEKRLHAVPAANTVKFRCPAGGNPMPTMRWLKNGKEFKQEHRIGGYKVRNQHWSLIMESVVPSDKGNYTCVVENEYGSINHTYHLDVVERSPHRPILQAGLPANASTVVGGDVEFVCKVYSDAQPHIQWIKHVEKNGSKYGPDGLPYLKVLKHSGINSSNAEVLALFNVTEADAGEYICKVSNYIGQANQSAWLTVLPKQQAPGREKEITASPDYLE
T2 sequence (P21802 other isoform, or with tags, fused parts or gaps limits assumed): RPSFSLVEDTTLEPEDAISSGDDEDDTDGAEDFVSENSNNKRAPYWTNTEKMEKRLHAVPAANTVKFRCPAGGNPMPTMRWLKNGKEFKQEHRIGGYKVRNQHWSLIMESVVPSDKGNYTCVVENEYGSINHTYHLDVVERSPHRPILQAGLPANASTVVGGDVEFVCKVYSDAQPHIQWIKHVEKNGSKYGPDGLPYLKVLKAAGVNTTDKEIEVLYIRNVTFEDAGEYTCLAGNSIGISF

B1: FWB1925 (antibody, V domains shown)
VH: QVQLVQSGAEVKKPGSSVKVSCKASGYIFTSYNVHWVRQAPGQGLEWIGSIYPDNGDSTYDEDYRGRATITADKSTSTAYMELSSLRSEDTAVYYCARGDFAYWGQGTLVTVSS
VL: DIQMTQSPSSLSASVGDRVTITCKGSNGISNDIAWYQQKPGKAPKLLIYSASYRYSGVPSRFSGSGSGTDFTFTISSLQPEDIATYYCQQHSTTPYTFGQGTKLEIK
With B1, the EC50 in experiment [1] was determined as 0.643 nM; in experiment [2] it was 0.173 nM; in experiment [3] it was 0.0908 nM.

B2: FWB1906 (antibody, V domains shown)
VH: QVQLVQSGAEVKKPGSSVKVSCKASGYIFTSYNVHWVRQAPGQGLEWIGSIYPDNGDSSYNQNYRGRATITADKSTSTAYMELSSLRSEDTAVYYCARGDFAYWGQGTLVTVSS
VL: DIQMTQSPSSLSASVGDRVTITCKASNGISNDIAWYQQKPGKAPKLLIYSASYRYSGVPSRFSGSGSGTDFTFTISSLQPEDIATYYCQQHSTTPYTFGQGTKLEIK
In the case of B2, the EC50 in experiment [1] is 0.324 nM; in experiment [2] it was 0.167 nM; in experiment [3] it was 0.289 nM.
